Legend:
[1] = target: T1, human alpha-thrombin (Homo sapiens) (UniProt P00734+P00734); test: bead-based fluorescence binding; details: 50 mM Tris, 100 mM NaCl, 1 mM MgCl2, 5 mM KCl, 1 mM CaCl2, 0.01% Tween 20, pH 7.5 (selection buffer), 1 h room temperature …
[2] = target: T1, human alpha-thrombin (Homo sapiens); test: fibrin formation inhibition (OD350); details: 50 mM Tris, 100 mM NaCl, 1 mM MgCl2, 5 mM KCl, 1 mM CaCl2, 0.01% Tween 20, pH 7.5 (selection buffer), 1 h room temperature …

| Sequence | fold affinity loss vs TBV-08 (fold lower affinity than TBV-08) [1] | Ki [2] [nM] |
| --- | --- | --- |
| AGTCCGTGGTAGGGCAGGTTGGGGTGACT [Tasset-29] | 200 | – |
| GGTTGGTGTGGTTGG [Bock-15] | 300 | 2.61 |

Reference: PMC3526301
